Experimental data: patent publication US20240317895A1

How the values were obtained:
[1] = target: PT linker-SpyCatcher-His (Streptococcus pyogenes); experiment: depletion of SpyTag-GA (15 mg/g resin) from supernatant, conditions of Example 4.3; SpyCatcher modified epoxy carrier, batch 1
[2] = target: PT linker-SpyCatcher-His (Streptococcus pyogenes); experiment: depletion of SpyTag-GA (15 mg/g resin) from supernatant, conditions of Example 4.3; SpyCatcher modified epoxy carrier, batch 2
[3] = target: PT linker-SpyCatcher-His (Streptococcus pyogenes); experiment: depletion of SpyTag-GA (15 mg/g resin) from supernatant, conditions of Example 4.3; SpyCatcher modified epoxy carrier, batch 3
[4] = target: PT linker-SpyCatcher-His (Streptococcus pyogenes); experiment: depletion of SpyTag-GA (15 mg/g resin) from supernatant, conditions of Example 4.3; SpyCatcher modified epoxy carrier, batch 4
[5] = target: PT linker-SpyCatcher-His (Streptococcus pyogenes); experiment: depletion of SpyTag-GA (15 mg/g resin) from supernatant, conditions of Example 4.3; SpyCatcher modified epoxy carrier, batch 5
[6] = target: PT linker-SpyCatcher-His (Streptococcus pyogenes); experiment: depletion of purified SpyTag-GA (15 mg/g carrier) from supernatant, SDS-PAGE densitometry; SpyCatcher-LX-1000EP; pH 7.0, 25 C, 2 h
[7] = target: PT linker-SpyCatcher-His (Streptococcus pyogenes); experiment: depletion of SpyTag-GA (10 mg/g carrier) from E. coli lysate supernatant, SDS-PAGE densitometry; SpyCatcher on HFA001 epoxy carrier
[8] = target: PT linker-SpyCatcher-His (Streptococcus pyogenes); experiment: depletion of SpyTag-GA (10 mg/g carrier) from E. coli lysate supernatant, SDS-PAGE densitometry; SpyCatcher on ECR8204 epoxy carrier
[9] = target: PT linker-SpyCatcher-His (Streptococcus pyogenes); experiment: depletion of SpyTag-GA (10 mg/g carrier) from E. coli lysate supernatant, SDS-PAGE densitometry; SpyCatcher on ECR8285 epoxy carrier
[10] = target: PT linker-SpyCatcher-His (Streptococcus pyogenes); experiment: depletion of SpyTag-GA (10 mg/g carrier) from E. coli lysate supernatant, SDS-PAGE densitometry; SpyCatcher on LX-103B epoxy carrier
[11] = target: PT linker-SpyCatcher-His (Streptococcus pyogenes); experiment: depletion of SpyTag-GA (10 mg/g carrier) from E. coli lysate supernatant, SDS-PAGE densitometry; SpyCatcher on LX-1000EP epoxy carrier
[12] = target: PT linker-SpyCatcher-His (Streptococcus pyogenes); experiment: depletion of SpyTag-GA (2.0 mg/g carrier) from E. coli lysate supernatant, SDS-PAGE densitometry; SpyCatcher-LX-1000EP; pH 7.0, 25 C, 2 h
[13] = target: PT linker-SpyCatcher-His (Streptococcus pyogenes); experiment: depletion of SpyTag-GA (10 mg/g carrier) from E. coli lysate supernatant, SDS-PAGE densitometry; SpyCatcher on LX-107S epoxy carrier (blocking control without SpyCatcher 72.5)

Substance “SpyTag-GS linker-GA-His fusion protein of a SpyTag and glutaryl-7-amidocephalosporanic acid acylase (from UniProt P07662 30-720) (enzyme)” has an Immobilization Efficiency (%) [1] of 94.7%, an Immobilization Efficiency (%) [2] of 92.2% and an Immobilization Efficiency (%) [3] of 90.9%. For the same substance, the Immobilization Efficiency (%) [4] was 86.6%, the Immobilization Efficiency (%) [5] was 96.9% and the Immobilization Efficiency (%) [6] was 91.5%. It also gave an Immobilization Efficiency (%) [7] of 79.4%, an Immobilization Efficiency (%) [8] of 52.1% and an Immobilization Efficiency (%) [9] of 57.4%. For the same substance, the Immobilization Efficiency (%) [10] was 77%, the Immobilization Efficiency (%) [11] was 77.6% and the Immobilization Efficiency (%) [12] was 86.2%. It also gave an Immobilization Efficiency (%) [13] of 49.1%.
